Experimental data as given in IntAct's records for PubMed 23803857.

B1: C-type lectin domain family 2 member A (Homo sapiens), Q6UVW9 (parent)
chain: MINPELRDGRADGFIHRIVPKLIQNWKIGLMCFLSIIITTVCIIMIATWSKHAKPVACSGDWLGVRDKCFYFSDDTRNWTASKIFCSLQKAELAQIDTQEDMEFLKRYAGTDMHWIGLSRKQGDSWKWTNGTTFNGWFEIIGNGSFAFLSADGVHSSRGFIDIKWICSKPKYFL
partner: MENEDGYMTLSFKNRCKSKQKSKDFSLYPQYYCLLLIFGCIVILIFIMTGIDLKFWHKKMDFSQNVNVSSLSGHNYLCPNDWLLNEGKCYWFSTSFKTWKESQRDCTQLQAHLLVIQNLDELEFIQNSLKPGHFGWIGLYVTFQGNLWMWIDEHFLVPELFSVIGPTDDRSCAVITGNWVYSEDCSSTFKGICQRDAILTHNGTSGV

Variants of: B1
Conditions: with klrf2_human KLRF2, D3W0D1

Row | Variant | effect of a mutation on the interaction
1 | F148A | decreasing interaction strength
2 | F160A;I161A | decreasing interaction strength
3 | D152A | with no effect
4 | D162A | decreasing interaction strength
5 | S157A;R158A | decreasing interaction strength
6 | T111A;D112A;M113A | with no effect
7 | H155A | decreasing interaction strength
